In experiment [1] the target is PRE (human metapneumovirus (hMPV), strain …, UniProt Q6WB98 19-489). As to the kind of experiment: ELISA; pre-fusion F. Background: An ELISA detects its analyte on a solid surface through an enzyme-linked reagent.
Experiment [2] concerns the target POST (human metapneumovirus (hMPV), strain …, UniProt Q6WB98 19-489). As to the kind of experiment: ELISA; post-fusion F.
In experiment [3] the target is MPV pre-fusion F protein (conformationally stabilized, CAN97-83 MPV strain) (human metapneumovirus (hMPV), strain …, UniProt Q6WB98 19-489). The experiment in a line: ELISA.

The term EC50 denotes the concentration needed to bring the measured effect to its halfway point. Low readings indicate a more potent agent, high ones a less potent agent.

Sequence of MPV pre-fusion F protein (conformationally stabilized, CAN97-83 MPV strain) (Q6WB98 19-489): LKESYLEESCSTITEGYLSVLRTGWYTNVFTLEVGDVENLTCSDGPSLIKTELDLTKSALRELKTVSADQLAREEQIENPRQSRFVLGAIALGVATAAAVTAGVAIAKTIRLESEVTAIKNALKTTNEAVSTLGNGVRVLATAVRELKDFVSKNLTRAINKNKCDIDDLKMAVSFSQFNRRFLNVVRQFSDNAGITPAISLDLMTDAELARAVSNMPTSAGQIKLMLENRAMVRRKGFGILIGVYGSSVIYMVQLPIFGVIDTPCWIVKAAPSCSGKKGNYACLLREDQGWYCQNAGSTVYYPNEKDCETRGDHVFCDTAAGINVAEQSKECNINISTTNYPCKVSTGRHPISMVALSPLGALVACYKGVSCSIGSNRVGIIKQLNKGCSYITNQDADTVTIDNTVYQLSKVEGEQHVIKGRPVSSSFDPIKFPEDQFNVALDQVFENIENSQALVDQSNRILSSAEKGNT
Sequence of PRE (Q6WB98 19-489): as above
Sequence of POST (Q6WB98 19-489): as above

B1: MPE8 (antibody, V domains shown)
VH: EVQLVESGGGLVKPGGSLRLSCAASGFTFSSYSMNWVRQAPGKGLEWVSSISASSSYSDYADSAKGRFTISRDNAKTSLFLQMNSLRAEDTAIYFCARARATGYSSITPYFDIWGQGTLVTVSS
VL: QSVVTQPPSVSGAPGQRVTISCTGSSSNIGAGYDVHWYQQLPGTAPKLLIYDNNNRPSGVPDRFSASKSGTSASLAITGLQAEDEADYYCQSYDRSLSGVFGTGTKVTVL
As for B1, the concentration for a half-maximal effect (EC50) in experiment [1] was found to be 34.8 ng/mL; in experiment [2] it was 769000 ng/mL.

B2: MPE33_S36A (antibody, V domains shown)
VH: QVQLQESGPGLVKPSQTLSLTCTVSGDSISNGAYCWNWVRQPAGKGLEWIGRIYPIGNTNYNPSLKSRVTISLDTSKNQFSLKLASVTAADTAVYYCAREARIFEGYYYYYYGLDVWGQGTTVTVSS
VL: EIVLTQSPATLSLSPGERATLSCRASQTISSYLAWYQQKPGQAPRLLISDVSKRATGIPARFSGSGSGTDFTLTISSLEPEDFAVYYCHQRSNWDTFGQGTKLEIK
B2 came in with an EC50 in experiment [3] of 2.31 ng/mL.

B3: MPE33_N34S_C38Y (antibody, V domains shown)
VH: QVQLQESGPGLVKPSQTLSLTCTVSGDSISSGSYYWNWVRQPAGKGLEWIGRIYPIGNTNYNPSLKSRVTISLDTSKNQFSLKLASVTAADTAVYYCAREARIFEGYYYYYYGLDVWGQGTTVTVSS
VL: EIVLTQSPATLSLSPGERATLSCRASQTISSYLAWYQQKPGQAPRLLISDVSKRATGIPARFSGSGSGTDFTLTISSLEPEDFAVYYCHQRSNWDTFGQGTKLEIK
Molecule B3 gave a 50% effective concentration (EC50) in experiment [3] of 2.87 ng/mL.

B4: MPE33_C38S (antibody, V domains shown)
VH: QVQLQESGPGLVKPSQTLSLTCTVSGDSISNGSYSWNWVRQPAGKGLEWIGRIYPIGNTNYNPSLKSRVTISLDTSKNQFSLKLASVTAADTAVYYCAREARIFEGYYYYYYGLDVWGQGTTVTVSS
VL: EIVLTQSPATLSLSPGERATLSCRASQTISSYLAWYQQKPGQAPRLLISDVSKRATGIPARFSGSGSGTDFTLTISSLEPEDFAVYYCHQRSNWDTFGQGTKLEIK
B4: in experiment [3], the EC50 came out at 2.39 ng/mL.

B5: MPE33_N34S (antibody, V domains shown)
VH: QVQLQESGPGLVKPSQTLSLTCTVSGDSISSGSYCWNWVRQPAGKGLEWIGRIYPIGNTNYNPSLKSRVTISLDTSKNQFSLKLASVTAADTAVYYCAREARIFEGYYYYYYGLDVWGQGTTVTVSS
VL: EIVLTQSPATLSLSPGERATLSCRASQTISSYLAWYQQKPGQAPRLLISDVSKRATGIPARFSGSGSGTDFTLTISSLEPEDFAVYYCHQRSNWDTFGQGTKLEIK
B5 yielded a concentration giving a half-maximal response (EC50) in experiment [3] of 1.56 ng/mL.

B6: MPE33_C38A (antibody, V domains shown)
VH: QVQLQESGPGLVKPSQTLSLTCTVSGDSISNGSYAWNWVRQPAGKGLEWIGRIYPIGNTNYNPSLKSRVTISLDTSKNQFSLKLASVTAADTAVYYCAREARIFEGYYYYYYGLDVWGQGTTVTVSS
VL: EIVLTQSPATLSLSPGERATLSCRASQTISSYLAWYQQKPGQAPRLLISDVSKRATGIPARFSGSGSGTDFTLTISSLEPEDFAVYYCHQRSNWDTFGQGTKLEIK
As to B6, the concentration giving a half-maximal response (EC50) in experiment [3] is 1.51 ng/mL.

B7: MPE33_N34Q (antibody, V domains shown)
VH: QVQLQESGPGLVKPSQTLSLTCTVSGDSISQGSYCWNWVRQPAGKGLEWIGRIYPIGNTNYNPSLKSRVTISLDTSKNQFSLKLASVTAADTAVYYCAREARIFEGYYYYYYGLDVWGQGTTVTVSS
VL: EIVLTQSPATLSLSPGERATLSCRASQTISSYLAWYQQKPGQAPRLLISDVSKRATGIPARFSGSGSGTDFTLTISSLEPEDFAVYYCHQRSNWDTFGQGTKLEIK
In turn, B7 showed a concentration for a half-maximal effect (EC50) in experiment [3] of 1.96 ng/mL.

B8: MPE33_C38Y (antibody, V domains shown)
VH: QVQLQESGPGLVKPSQTLSLTCTVSGDSISNGSYYWNWVRQPAGKGLEWIGRIYPIGNTNYNPSLKSRVTISLDTSKNQFSLKLASVTAADTAVYYCAREARIFEGYYYYYYGLDVWGQGTTVTVSS
VL: EIVLTQSPATLSLSPGERATLSCRASQTISSYLAWYQQKPGQAPRLLISDVSKRATGIPARFSGSGSGTDFTLTISSLEPEDFAVYYCHQRSNWDTFGQGTKLEIK
Turning to B8, the concentration for a half-maximal effect (EC50) in experiment [3] was determined as 2.5 ng/mL.

The values are drawn from patent US20240034772A1 (published 2024).
